Assay results taken from patent US20250281632A1, “LGALS3BP ANTIBODY-DRUG-CONJUGATE AND ITS USE FOR THE TREATMENT OF CANCER” (MEDIAPHARMA S.R.L., priority 2018, published 2025).
One block for each molecule: values may come before it.

Key:
[1] = tested on: Neuroblastoma cell lines (SHSY5Y, Kelly and hNB); assay: MTT cell killing assay; type: cell-based, human; conditions: 72 hours, A375m melanoma cells as positive control (FIG. 19)
Procedure: Neuroblastoma cell lines (SHSY5Y, Kelly and hNB) and A375m melanoma cell line were plated and treated with increasing concentrations of SH-DM3 for 72 hours. The cell killing activity of the drug was evaluated by MTT assay.

[2] = target: T1, Human recombinant LGALS3BP (human, UniProt Q08380 19-585); assay: ELISA, plate-coated human recombinant LGALS3BP, anti-human IgG-HRP detection
T1 construct: also called 90K
T1 sequence (looked up): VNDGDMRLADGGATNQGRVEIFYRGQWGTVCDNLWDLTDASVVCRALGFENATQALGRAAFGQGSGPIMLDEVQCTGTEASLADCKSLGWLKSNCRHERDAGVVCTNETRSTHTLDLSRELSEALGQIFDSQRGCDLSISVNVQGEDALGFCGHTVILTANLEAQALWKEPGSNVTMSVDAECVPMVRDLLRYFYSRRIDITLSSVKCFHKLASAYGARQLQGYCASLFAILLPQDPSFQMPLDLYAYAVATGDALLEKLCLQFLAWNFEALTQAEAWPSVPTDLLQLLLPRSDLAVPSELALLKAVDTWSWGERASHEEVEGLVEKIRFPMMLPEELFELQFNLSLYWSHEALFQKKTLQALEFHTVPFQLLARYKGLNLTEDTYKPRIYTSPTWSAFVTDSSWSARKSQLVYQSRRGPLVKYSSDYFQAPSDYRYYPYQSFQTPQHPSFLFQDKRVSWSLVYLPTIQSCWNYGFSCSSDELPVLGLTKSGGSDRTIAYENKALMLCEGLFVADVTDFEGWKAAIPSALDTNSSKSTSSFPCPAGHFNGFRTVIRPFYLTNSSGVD
Procedure: Human recombinant LGALS3BP (2 μg/ml) was pre-coated overnight at 4° C. on 96 well-plates NUNC Maxisorp modules. […] After several washes with PBS-0, 1% Tween-20, anti-human IgG-HRP was added and incubated for 1 hour at room temperature. After washes, stabilized chromogen was added for at least 10 minutes in the dark, before stopping the reaction with the addition of 1 N H₂SO₄. The resulting color was read at 492 nm with an Elisa reader.

[3] = target: T2, LGALS3BP at the membrane of human tumor cells (human, UniProt Q08380 19-585); assay: confocal immunofluorescence on MDA-MB-231, A375 and FADU cells, anti-human IgG-Alexa Fluor 488
T2 construct: whole, on cells; A secreted protein that stays close to the plasma membrane; It was detected by immunofluorescence on cells; also called Gal-3BP
T2 sequence (looked up): T1 sequence (looked up)
Procedure: Human tumor cells were grown on glass coverslips for 24 hours. […] At the end of incubation, cells were fixed in 4% paraformaldehyde for 15 minutes at room temperature, permeabilized with 0.25% Triton X-100 for 5 minutes, and blocked with 0.1% BSA for 1 hour at room temperature. Coverslips were then incubated with anti-human IgG-Alexa Fluor 488 conjugated. DRAQ5 was used to visualize nuclei. Images were acquired with a Zeiss LSM 510 meta-confocal microscopy using 488- and 633-nm lasers. [0142] […] [0143] A-B; MDA-MB-231 breast cancer; C-D, A375 melanoma; E-F, FADU, H&N cancer; G-H, HBF, normal bronchial fibroblasts.

Molecule: COc1cc2cc(c1Cl)N(C)C(=O)C[C@H](OC(=O)C(C)N(C)C(=O)CCC(C)S)[C@]1(C)O[C@H]1[C@H](C)C1C[C@@](O)(NC(=O)O1)[C@H](OC)/C=C/C=C(\C)C2 (some centres unmarked) [SH DM3]
- cell killing activity [1]: potent cell killing activity

- binding result [2]: binds
- binding result [3]: binds
B1: Antibody 1959-sss (C220S-C226S-C229S) (antibody, V domains shown)
VH: QVQLQESGPGLVKPSETLSLTCAVSGYSISSGYYWTWIRQPPGKGLEWIGYITYDGKNNYSPSLKNRVTISVDTSKNQFSLKLSSVTAADTAVYYCAREGSSVITTGFTFWGQGTLVTVSS
VL: DIQMTQSPSTLSASVGDRVTITCSASSRVSYMYWYQQKPGKAPKLLIYLTSNLASGVPARFSGSGSGTEFTLTISSLQPDDFATYYCQQWTSHPPTFGQGTKVEVKR
notes: Humanized SP-2 on a human IgG framework, with the hinge cysteines 220, 226 and 229 changed to serine, so no interchain disulfides; Made in CHO cells

- binding result [2]: binds
- binding result [3]: binds
B2: 1959-sss-DM3 (antibody, V domains shown)
VH: B1 VH
VL: B1 VL
modifications: maytansinoid DM3 joined by a disulfide bond to a cysteine of the light chain (DAR 2; light chain mass 24053 Da against 23261 Da reduced); residue number not given
notes: also called Ab1959-SSS-DM3
